Source: US20260256741A1, “ANTICANCER MALEIMIDE DERIVATIVES FOR USE WITH IMMUNE CHECKPOINT BLOCKADE” (BROWN UNIVERSITY, priority 2022, published 2026)

How the values were obtained:
HCT-116 CRC cells = test: Western blot analysis of HCT-116 CRC cells; assay type: cell-based, human; details: 250 ng/mL IFN-γ
Procedure: (§1) Recombinant Human TNF-α (Cat #300-01A, PeproTech, Rocky Hill, NJ, USA) and Recombinant Human IFN-γ (Cat #300-02, Peprotech, Rocky Hill, NJ, USA) were purchased for use in western blot analysis while rhTRAIL was generated in-house. Kim et al., J Biol Chem., 279(38):40044-52 (2004).
(§2) Cells were plated in a 6-well plate and incubated overnight before the spent media was replaced with drugged media. Drug treatment lasted for indicated durations. Protein was extracted using radioimmunoprecipitation (RIPA) assay buffer (Cat #R0278, Sigma-Aldrich, St. Louis, MO) containing cOmplete™, Mini, EDTA-free Protease Inhibitor Cocktail (Cat #4693159001, Roche, Basel, Switzerland) from sub-confluent cells. Denaturing sample buffer was added, samples were boiled at 95 degrees for 10 minutes, and an equal amount of protein lysate was electrophoresed through NuPAGE™ 4 to 12%, Bis-Tris, 1.5 mm, Mini Protein Gels (Invitrogen, Waltham, MA) then transferred to PVDF membranes. The PVDF membrane was blocked with 5% non-fat milk (Sigma-Aldrich, St. Louis, MO) in 1×TTBS. Primary antibodies were incubated with the transferred PVDF membrane in blocking buffer at 4° C. overnight. Secondary antibodies used included Goat anti-Rabbit IgG (H+L) Secondary Antibody, HRP (Cat #31460, Invitrogen, Waltham, MA), and Goat anti-Mouse IgG (H+L) Secondary Antibody, HRP (Cat #31430, Invitrogen, Waltham, MA). Signal was detected using Pierce™ ECL Western Blotting Substrate (Cat #32106, Thermo Scientific, Waltham, MA, USA) and a Syngene Imaging System (RRID: SCR_015770).

HT-29 CRC cells = test: Western blot analysis of HT-29 CRC cells; assay type: cell-based, human; details: 250 ng/mL IFN-γ
Procedure: as §1, §2

B1: IFN-γ: Recombinant Human IFN-γ (Peprotech) used to treat tumor cells for western blot (protein, UniProt P01579 24-161, looked up)
Interferon gamma: QDPYVKEAENLKKYFNAGHSDVADNGTLFLGILKNWKEESDRKIMQSQIVSFYFKLFKNFKDDQSIQKSVETIKEDMNVKFFNSNKKKRDDFEKLTNYSVTDLNVQRKAIHELIQVMAELSPAAKTGKRKRSQMLFRG
B1 was tested, and the “gasdermin B expression” value (HCT-116 CRC cells) was “increase in gasdermin B expression” and the “gasdermin B expression” value (HT-29 CRC cells) was “increase in gasdermin B expression”.
